According to patent US20160068860A1, “TRANSGENIC PLANTS” (CONSEJO SUPERIOR DE INVESTIGACIONES CIENTIFICAS (CSIC), priority 2013, published 2016):

Molecular target: PP2CA (Arabidopsis thaliana, UniProt O80920+P49598, A194T)
Test: BiFC assay with PP2CA in N. benthamiana leaves
Type: cell-based
Design: expressed in transfected cells; host or cells: N. benthamiana leaf epidermal cells (Agroinfiltration)
Conditions: no exogenous ABA; compared to PYL4
Procedure: Experiments were performed basically as described by Voinnet et al., (2003). The different binary vectors described above where introduced into Agrobacterium tumefaciens C58C1 (pGV2260) (Deblaere et al., 1985) by electroporation and transformed cells were selected in LB plates supplemented with kanamycin (50 μg/ml). Then, they were grown in liquid LB medium to late exponential phase and cells were harvested by centrifugation and resuspended in 10 mM morpholinoethanesulphonic (MES) acid-KOH pH 5.6 containing 10 mM MgCl2 and […] acetosyringone to an OD600 nm of 1. These cells were mixed with an equal volume of Agrobacterium C58C1 (pCH32 35S:p19) expressing the silencing suppressor p19 of tomato bushy stunt virus (Voinnet et al., 2003) so that the final density of Agrobacterium solution was about 1. Bacteria were incubated for 3 h at room temperature and then injected into young fully expanded leaves of 4-week-old N. benthamiana plants. Leaves were examined after 3-4 days under a Leica TCS-SL confocal microscope and laser scanning confocal imaging system. Quantification of fluorescent protein signal was done as described (Gampala et al., 2007) using the National Institutes of Health (NIH) Image software ImageJ v1.37. […]

PP2CA, sequence (P49598 whole entry, one chain of several): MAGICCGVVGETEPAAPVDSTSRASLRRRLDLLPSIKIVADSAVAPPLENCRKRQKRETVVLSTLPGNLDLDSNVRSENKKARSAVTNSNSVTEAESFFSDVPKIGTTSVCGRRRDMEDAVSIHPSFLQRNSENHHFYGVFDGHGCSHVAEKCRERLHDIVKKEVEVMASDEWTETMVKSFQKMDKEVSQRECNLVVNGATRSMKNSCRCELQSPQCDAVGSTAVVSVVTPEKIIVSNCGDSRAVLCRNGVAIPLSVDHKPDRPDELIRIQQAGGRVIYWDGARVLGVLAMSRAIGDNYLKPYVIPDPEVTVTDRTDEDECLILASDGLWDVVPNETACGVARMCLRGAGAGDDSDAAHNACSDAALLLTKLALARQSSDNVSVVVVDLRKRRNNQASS

B1: PYL4A194T: AtPYL4 ABA receptor mutant polypeptide with A194T substitution (SEQ ID NO. 60; nucleic acid SEQ ID NO: 55); also over-expressed in plants (protein, listed as Arabidopsis thaliana)
chain: MLAVHRPSSAVSDGDSVQIPMMIASFQKRFPSLSRDSTAARFHTHEVGPNQCCSAVIQEISAPISTVWSVVRRFDNPQAYKHFLKSCSVIGGDGDNVGSLRQVHVVSGLPAASSTERLDILDDERHVISFSVVGGDHRLSNYRSVTTLHPSPISGTVVVESYVVDVPPGNTKEETCDFVDVIVRCNLQSLAKITENTAAESKKKMSL
  relative fluorescence emission of interaction with PP2CA: higher
